In paper PMC6599971:

Assays:
[1] = molecular target: N-terminally 6×His-tagged FilP expressed in E. coli (Streptomyces coelicolor); assay: ultracentrifugation sedimentation assay; His-N-FilP 200 μg/ml dialysed against Tris pH 8.8; 135,000-300,000g, 15-30 min, 25°C
[2] = molecular target: N-terminally 6×His-tagged FilP expressed in E. coli (Streptomyces coelicolor); assay: ultracentrifugation sedimentation assay; His-N-FilP 200 μg/ml dialysed against 50 mM Tris-HCl pH 6.8 with 1 M NaCl; 135,000-300,000g, 15-30 min, 25°C
[3] = molecular target: N-terminally 6×His-tagged FilP expressed in E. coli (Streptomyces coelicolor); assay: turbidity (light scattering at 350 nm); His-N-FilP at 20-200 μg/ml dialysed against Tris assembly buffer; 96-well plate
[4] = molecular target: N-terminally 6×His-tagged FilP expressed in E. coli (Streptomyces coelicolor); assay: ultracentrifugation sedimentation assay; His-N-FilP 200 μg/ml dialysed against 50 mM Tris-HCl pH 6.8 with 5 mM MgCl2; 135,000-300,000g, 15-30 min, 25°C
[5] = molecular target: N-terminally 6×His-tagged FilP expressed in E. coli (Streptomyces coelicolor); assay: ultracentrifugation sedimentation assay; His-N-FilP 200 μg/ml dialysed against 50 mM Tris-HCl pH 6.8 with 0.2 M KCl; 135,000-300,000g, 15-30 min, 25°C
[6] = molecular target: N-terminally 6×His-tagged FilP expressed in E. coli (Streptomyces coelicolor); assay: ultracentrifugation sedimentation assay; His-N-FilP 200 μg/ml dialysed against 50 mM Tris-HCl pH 6.8 with 0.2 M KCl and 1 M NaCl; 135,000-300,000g, 15-30 min, 25°C
[7] = molecular target: N-terminally 6×His-tagged FilP expressed in E. coli (Streptomyces coelicolor); assay: ultracentrifugation sedimentation assay; His-N-FilP 200 μg/ml dialysed against 50 mM Tris-HCl pH 6.8 with 1 M NaCl; 135,000-300,000g, 15-30 min, 25°C; remark: listed apart in the source

N-terminally 6×His-tagged FilP expressed in E. coli (natural protein)
percent of total FilP soluble (in the supernatant after ultracentrifugation) [1]: 32% | percent of added protein recovered in the supernatant after ultracentrifugation [2]: 35% | critical concentration for filamentation [3]: 33 µg/mL | percent of added protein recovered in the supernatant after ultracentrifugation [4]: 11% | percent of added protein recovered in the supernatant after ultracentrifugation [5]: 25% | percent of added protein recovered in the supernatant after ultracentrifugation [6]: 63% | percent of added protein recovered in the supernatant after ultracentrifugation [7]: 40%
